This note sets out measurements from paper PMC9849103 (Nature Communications, 2023).

Sequences and labels used below:
B1: C2593 (antibody, V domains shown)
VH: QVQLVQSGAEVKKPGSSVKVSCKASGGTFNSYAITWVRQAPGQGLEWMGGIIFIFDTANYAQKFQGRVTITADESTSTVYMELSSLRSEDTAVYYCARPGAELRDHYYYYGMDVWGQGTTVTVSS
VL: DIVMTQSPLSLPVTPGEPASISCRSTQSLLHSNGNNYLDWYLQKPGQSPQLLIYLASNRAPGVPDRFSGSGSGTDFTLRISRVEAEDVGVYYCMQALQTPPTFGQGTRLEIK
notes: source: 293-6E cells, transfected, purified (Protein G Sepharose)
B2: C3057 (antibody, V domains shown)
VH: QVQLVQSGGGLVQPGGSLRLSCEASGLSVSRNYMRWVRQAPGKGLEWVSLIYSGGSTFYADSVKGRFTISRDNSKNTLYLQMTSLRAEDTAVYYCARDLVDYGMDVWGHGTTVTVSS
VL: DIQLTQSPSFLSASVGDRVTITCRASQGISNYLAWYQQKPGKAPQLLIYAASTLQSGVPSRFSGSGSGTEFTLTISSLQPEDFATYFCQQLNSDVITFGQGTRLEIK
notes: as for B1
B3: C996 (antibody, V domains shown)
VH: EVQLVESGGGLVQPGGSLRLSCVASGFTSTNYDMHWVRQAPGRGLQWVSSIGTAGDTYYPGSVRGRFTISRENAKNSLDLQMNSLRVGDTAVYYCARGQRGYYDRSGYYWGWRAFDIWGQGTMVTVSS
VL: SYELTQPPSVSVAPGQTARITCGGNNIGNKSVYWYQQKPGQAPVLVVYDDSGRPSGIPERFSGSNSANTATLTISRVEAGDEADYYCQVWDNNSDQFGGGTKLTVL
notes: as for B1
B4: C3123 (antibody, V domains shown)
VH: QVQLQESGPGLVKPSQTLSLTCAVSGDSVSRGGFYWTWIRQLPGMGLECIGYIDYSGSTHYNPSLKSRVTISLDTSNNQFSLKMTSVTAADTALYYCARGAVPGIGWFDPWGQGTLVTVSS
VL: SYELTQPPSVSVAPGKTASISCGGNNIATKSVHWYQQKPGQAPALVIYYDSDRPSGIPERFSGSNSGNTATLTISRVEAGDEAAYYCQVWESSGDHVVFGGGTKLTVL
notes: as for B1
B5: C1002 (antibody, V domains shown)
VH: EVQLVESGGGLVQPGGSLRLSCAASEFIVSSNYMTWVRQAPGKGLEWVSIMYPGGSTFYADSVKGRFTISRDNSKNTLYLQINRLRAEDTAVYYCARDIAGRLDYWGQGTLVTVSS
VL: DIQMTQSPSSLSASVGDRVTITCQASQDINNYLNWYQQKPGKAPKLLIYDASNLETGVPSRFSGSGSGTDFSFTISSLQPEDIATYYCQQYDNLSRLTFGGGTKVEIK
notes: as for B1
B6: C2588 (antibody, V domains shown)
VH: QVQLVQSGAEVKKPGSSVKVSCKASGDTFNIYAINWVRQAPGQGLEWMGRIIPRFGMANYAQKFQGRVTMTADKSTSTAYMDLISLKSEDTAVYYCATSAYLSGSGHYFDYWGQGTLVTVSS
VL: EIVLTQSPATLSLSPGERATLSCRASQSVGGSFLAWYQQKPGQAPRLLIYGASSRATGIPDRFSGSGSGTDFTLTISRLEPEDFAVYFCQQYASSRTFGQGTKVEIK
notes: as for B1
B7: C1040 (antibody, V domains shown)
VH: QVQLVESGGGVVQPGRSLRLSCAASGFSFINYNMHWVRQAPGKGLEWVAVIWYDGSNKYYADSVKGRFTISRDNSKNTLYLQMNSLRVEDTAVYYCARDPAITEAEIDYWGQGTLVTVSS
VL: DVVMTQSPLSLPVTLGQAASISCRSSQSLVHSDGNTYLNWFQQRPGQSPRRLIYRVSNRDSGVPDRFSASGSGTDFTLKISRVEAEDVGVYYCMQGTHWPWTFGQGTKVEIK
notes: as for B1
B8: C022 (antibody, V domains shown)
VH: QVQLQESGPGLVKPSETLSVTCTVSGGSISSSRYYWGWIRQPPGKGLEWIGSIYYSGSTYYNPSLKSRVTISVDTSKNQFSLKLSSVTAADTAVYYCARHAAAYYDRSGYYFIEYFQHWGQGTLVTVSS
VL: DIQMTQSPSTLSASVGDSVTITCRASQSISSWLAWYQQKPGKAPKLLIYKASSLESGVPSRFSGSGSGTEFTLTISSLQPDDFATYYCQQYNNYRYTFGQGTKLEIK
notes: as for B1
B9: C3054 (antibody, V domains shown)
VH: EVQLVESGGGLGQPGGSLRLSCVASGFSFSTYSMNWVRQAPGKGLEWLSYINAGSTTIYSADSVTGRFSISRDNAKNSLYLHMNSLRADDTAVYYCARGVPFDYWGQGTLVTVSS
VL: DIVMTQTPLSLPVTPGEPASISCRSSRSLLDSDDADTYLDWYLQKPGQSPQLLIYTLSYRASGVPDRFSGSGSGTDFTLKISRVEAEDVGVYYCMQRIQFPWTFGQGTKVEIK
notes: as for B1
B10: C963 (antibody, V domains shown)
VH: QVQLVQSGAEVKKPGSSVRVSCKASGGTFSSFTITWVRQAPGQGLEWMGRIIPNLNIPNYAQRFQGRITITAEKSTSTAYLELSSLRSEDTAVYYCARGVGYSGSGSNWYFDLWGRGTLVTVSS
VL: QSVLTQPPSVSGAPGQRVTISCTGSSSNIGAGYDVHWYQQLPGTAPKLLISGHINRPSGVPDRFSGSTSGTSASLAITGLQAEDEADYYCQSYDSSLSDSVFGGGTKLTV
notes: as for B1
B11: C118 (antibody, V domains shown)
VH: QVQLVESGGGVVQPGRSLRLSCAASGFTFSNYAMHWVRQAPGKGLEWVAVISYDGSNKYYADSVKGRFTISRDNSKNTLYLQMNSLRAEDTAIYYCASGYTGYDYFVRGDYYGLDVWGQGTTVTVSS
VL: QPVLTQSPSASASLGASVKLTCTLSSGHSSYAIAWHQQQPEKGPRYLMKLNTDGSHSKGDGIPDRFSGSSSGAERYLTISSLQSEDEADYYCQTWGTGILVFGGGTKLTVL
notes: as for B1
B12: C3060 (antibody, V domains shown)
VH: QVQLQESGPGLLKPSQTLSLICTVSGGSISSGDYYWNWIRQTPGKGLEWIGYIYYSGITYYNPSLKSRLSISLDTPKNQFSLKLTSVTAADTAVYYCATGPPTVTTENFDNWGQGTLVTVSS
VL: QSVLTQPPSVSAAPGQKVTISCSGSSSNIGNYYVSWYQQLPGTAPQLVIYDNNKRPSGIPDRFSGSKSGTSATLAITGLQTGDEADYYCGTWDASLNAGVFGGGTRLTVL
notes: as for B1
B13: C978 (antibody, V domains shown)
VH: QVQLVQSGAEVKKPGSSVKVSCKASGATFSNYIISWVRQAPGQGLEWMGRTIPLLDIANYAQKFQGRVTITADKSTRIVYMHLGSLTSEDTAVYYCATGKGYSSSSAAYYFDHWGQGTLVTVSS
VL: QSVLTQPPSVSGAPGQRVTISCTGTNSNIGAGYDIHWYQQLPGTAPKLLIYGSNNRPSGVPDRFSGSKSGTSASLAITGLQAEDEADYYCQSYDSSLSGSEVFGGGTKLTVL
notes: as for B1
B14: C1049 (antibody, V domains shown)
VH: EVQLVQSGAEVKKPGESLKISCKSSGYSFISHWIGWVRQMPGKGLEWMGIIWPGDSDTRYSPSFQGQVTISVDKSITTVYLQWSSLKAADTAMYYCARRGSSWEVDYWGQGTLVTVSS
VL: not shown
notes: as for B1
B15: C080 (antibody, V domains shown)
VH: EVQLVQSGAEVKKPGESLNISCKASGYSFTIYWIAWVRQLPGKGLEWMGIIYPGDSDTRYSPSFQGQVTISADKSISTAYLQWRSLKASDSAVYYCARGVAVDWYFDLWGRGTLVTVSS
VL: QSVLTQPPSVSGAPGQRVTISCAGSSSNIGAGFDVYWYQQLPGTAPKLLIYGNNNRPSGVPDRFSGSKSGTSASLAITGLQAEDEADYYCQSSGSVLSDLYVFGTGTKVTVL
notes: as for B1
B16: C3111 (antibody, V domains shown)
VH: EVQLVESGGRVVRPGESLRLSCAASGFNFNDYGMSWVRQVPGKGLEWVSGINWNGAISGYVDSVKGRFIISRDNAKNSLYLQMNSLRAEDTALYHCARAYCGDECYSLLVRGDALDIWGQGTMVTVSS
VL: QSVLTQPPSVSAAPGQTVTISCSGSSSNIGMNDVSWYQHLPGTAPKLLIYDSHKRPSGIPDRFSGSNSGTSATLGITGLQTGDEAHYYCGAWDSSLSAVVFGGGTMLAVL
notes: as for B1
B17: C3083 (antibody, V domains shown)
VH: EVQLVESGGGFVRPGGSLRLSCSTSGFTFSMFAMHWVRQAPGKGLEYVSGVSSNGLNTYYADSVKGRLVISRDDSKNTLYLQMTGLRVEDTAVYYCVKDDDFGDPGYGYHLDYWGQGTLVTVSS
VL: QSALTQPASVSGSPGQSITISCTGTSSDVGGYNYVSWFQQHPGKAPKLVIFEVSNRPSGISDRFSGSKSGNTASLTISELQAEDEADYYCSSYTSRIPIIFGTGTKVTV
notes: as for B1
B18: C1068 (antibody, V domains shown)
VH: QVQLVESGGGVVQPGRSLRLSCAASGFTFSTFAMHWVRQAPGKGLEWVAVTSYDGSNKYYADSVKGRFTISRDNSKNTLYLQMNSLRAEDTAVYYCARGLLWFGESEYFQHWGQGTLVTVSS
VL: not shown
notes: as for B1
B19: C1047 (antibody, V domains shown)
VH: EVQLVQSGAEVKKPGESLKISCKGSGYSFISYWIVWVRQMPGKGLEWIGIIYPGDSDTIYSPSFQGQVTLSADKSISTAYLQWSSLKASDTAIYYCAKMVTSGTSYYETRGYASSGPFDNWGQGTLVTVSS
VL: DIQLTQSPSSLSASVGDRVTITCRASQGISSALAWYQQKPGKAPKLLIYDASSLESGVPSRFSGSGSGTDFTLTISSLQPEDFATYYCQQSDNFGPGTKVDI
notes: as for B1
B20: C971 (antibody, V domains shown)
VH: EVQLVESGGGLVKPGGSLRLSCAASGFTFNNAWMTWVRQAPGKGLEWVGRIKSKTDGGTTDYGTPAKGRFTISRDDSKNTLYLQMKSLRTEDTAVYYCTTVDVQGIWELLENDAFDIWGQGTMVTVSS
VL: EIVLTQSPGTLSLSPGERATLSCRATQAISSTYLAWYQQKPGQAPRLLIYGAFSRAPGIPDRFSGSGSETDFTLTISRLEPEDFAVYYCQQSDRSPFTFGPGTKVDIK
notes: as for B1
B21: C099 (antibody, V domains shown)
VH: EVQLVESGGGLIQPGGSLRLSCAASGITVSSNYMSWVRQAPGKGLEWVSVMYAGGSTFYADSVKGRFTISRDDSKNTLFLQMNSLRAEDTAIYYCARDLYSSGGTDIWGQGTMVTVSS
VL: EIVLTQSPGTLSLSPGERATLSCRASQSIGSSYLAWYQQKPGLAPRLLIYGASRRATGIPDKFSGSGSGADFTLTISRLEPEDFAVYYCQQYGSSPGTFGQGTKVEIK
notes: as for B1
B22: C986 (antibody, V domains shown)
VH: EVQLVQSGAEVKKPGETLKISCKGSGDSFSNYWIGWVRQSPGKGLEWMAIVYPGDSDARYSPSFQGQVTISADKSVTTAYLKWSSLKASDTAIYYCVRGLPVDWYFDLWGRGTLVTVSS
VL: QSVLTQPPSVSGAPEQRVTISCTGSSSNIGAGHDVHWYQQLPGTAPKLLIYNNNNRPSGVPDRFSGSKSGASASLAISGLQAEDEAEYYCQSYDKSLSVLYVLGTGTKVTV
notes: as for B1

The experiment deals with WT RBD (SARS-CoV-2 Wuhan-Hu-1 spike receptor binding domain) (SARS-CoV-2 (Wuhan-Hu-1), UniProt P0DTC2). In words: BLI. To be noted: both partners purified.
Turning to B1, the equilibrium dissociation constant (Kd) (in general, the equilibrium constant for the complex coming apart) was 1.37 nM. The molecule B2 had a Kd of 2.08 nM. With B3 the figure was 3.72 nM; with B4, 1.57 nM; with B5, 0.441 nM.

B6 yielded an equilibrium dissociation constant (Kd) of 1.47 nM. With B7 the figure was 2.08 nM. The value for B8 was 3.15 nM; that for B9 was 2.49 nM; that for B10 was 0.653 nM.

Turning to B11, the dissociation constant (Kd) turned out to be 2.66 nM. The value for B12 was 1.1 nM. B13: the equilibrium dissociation constant (Kd) amounted to 1.33 nM. In turn, B14 had an equilibrium dissociation constant (Kd) of 2.35 nM. The molecule B15 gave a Kd of 0.286 nM. With B16 the figure was 0.236 nM; with B17, 0.201 nM; with B18, 28.8 nM. Consider B19, for which the dissociation constant Kd came out at 4.99 nM.

In turn, B20 came in with a Kd of 0.949 nM.

Take B21: the affinity, expressed as Kd, was 0.00214 nM. The molecule B22 gave a Kd of 0.472 nM.
